Experimental data as given in the supplement of paper PMC12764529.
± gives the half width of the 95% confidence interval.

Assays:
[1] = folding stability dG unfold from chymotrypsin proteolysis; higher = more stable
In short: (§1)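 Bayesian fitting of sequencing counts gave K50 for each design. Unfolding free energy followed by setting this against a sequence-predicted unfolded-state K50 and a shared folded-state K50, either per protease or with trypsin and chymotrypsin combined. The designs, under 80 residues and lacking cysteine, were digested in a PA-tagged cDNA display format at 11 threefold-diluted protease concentrations and without protease, and only those with AlphaFold2 dimer inter-PAE above 15 were kept.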

[2] = folding stability dG unfold (combined trypsin and chymotrypsin); higher = more stable
In short: as §1

[3] = folding stability dG unfold from trypsin proteolysis; higher = more stable
In short: as §1

Sequence	folding stability dG unfold [1]	folding stability dG unfold [2]	folding stability dG unfold [3]
SAGGSAGGSAGGPTITSSKIVAEYPGGKVIEVTIEEPLPTPSTVTKTVTLFIPEGSVLLSAGGSAGGSAGGS [r10_1183_JUSTAS]	0.402 ± 0.15 kcal/mol	0.361 ± 0.34 kcal/mol	0.536 ± 0.087 kcal/mol
SAGGSAGGSAGGPTIVIKDVKGLTPEQAEALARDLLKELGLEDADVRLERGEDGDLTFTYSAGGSAGGSAGG [r7_810_TrMRF]	0.79 ± 0.14 kcal/mol	1.26 ± 0.11 kcal/mol	1.68 ± 0.034 kcal/mol
SAGGSAGGSAGGPTVTVKVKLEDGSTATVTYDLDTGELYIEVNGKTYKFPLGSKVEIEEVSAGGSAGGSAGG [r7_434_TrROS_Hall]	3.56 ± 0.054 kcal/mol	3.31 ± 0.17 kcal/mol	2.39 ± 0.28 kcal/mol
SAGGSAGGSAGGPVIEIKVPSKEDALEAARKLLEELFGKKPEDMKITVEYNPEDKTIKIKSAGGSAGGSAGG [r7_387_TrROS_Hall]	1.28 ± 0.054 kcal/mol	0.986 ± 0.087 kcal/mol	0.333 ± 0.063 kcal/mol
SAGGSAGGSAGGPVLVKLSVSKPPGDKVIVTLSFYNPETKEVFTITVPLDFLKNIKPLFSAGGSAGGSAGGS [r10_1077_TrMRF]	2.87 ± 0.13 kcal/mol	2.83 ± 0.2 kcal/mol	2.61 ± 0.11 kcal/mol
SAGGSAGGSAGGPVVEELEEDLVTEYFRDGDDLYKVVFIPGTGKPFEKKIESIPPDEPFSAGGSAGGSAGGS [r10_240_TrMRF]	-0.0602 ± 0.21 kcal/mol	2.34e-05 ± 0.23 kcal/mol	0.119 ± 0.088 kcal/mol
SAGGSAGGSAGGPVVIRLKVDMSPEEVEALAKELASLPNVKVEWDEESRVLTVTLSEEDLSAGGSAGGSAGG [r7_219_TrROS_Hall]	2.98 ± 0.056 kcal/mol	2.72 ± 0.099 kcal/mol	2.46 ± 0.09 kcal/mol
SAGGSAGGSAGGPYIRVLRSDGKPIVVPVRADDPELFDRVVAELEAAGYPVVKAEVLRLSAGGSAGGSAGGS [r10_231_TrMRF]	0.155 ± 0.12 kcal/mol	-0.041 ± 0.093 kcal/mol	-0.818 ± 0.78 kcal/mol
SAGGSAGGSAGGSAKSPNGDELPPGQPVEEHTIRPPVKPTITIKMYADPDAGKMKFELFSAGGSAGGSAGGS [r4_13_TrROS]	0.446 ± 0.31 kcal/mol	0.533 ± 0.6 kcal/mol	0.225 ± 0.24 kcal/mol
SAGGSAGGSAGGSAPNVKLKVEVVTVKVENAKITLPDGRTITLKPGDTVTITKVTLEPASAGGSAGGSAGGS [r4_26_TrROS_Hall]	2.05 ± 0.085 kcal/mol	2.04 ± 0.22 kcal/mol	2.32 ± 0.088 kcal/mol
SAGGSAGGSAGGSASMSVTLERLPNGTVVKITTKSVDPSTGSVDYKPSVEKIPPGVALDSAGGSAGGSAGGS [r4_72_JUSTAS]	-0.448 ± 0.1 kcal/mol	-0.515 ± 0.28 kcal/mol	-0.437 ± 0.18 kcal/mol
SAGGSAGGSAGGSDPVKVTVTFTATVTVTLPDGGTAPVTLTVTVTAELPPGQSVEDFVASAGGSAGGSAGGS [r4_126_TrMRF]	3.65 ± 0.055 kcal/mol	3.3 ± 0.073 kcal/mol	2.6 ± 0.033 kcal/mol
SAGGSAGGSAGGSDRVEVELIFKFPNGFYVVIKWEIDPDEPGKIEMEIAIFDPDGKPIWSAGGSAGGSAGGS [r4_297_TrROS]	4.69 ± 0.12 kcal/mol	4.63 ± 0.19 kcal/mol	3.35 ± 0.2 kcal/mol
SAGGSAGGSAGGSEEILDVKVDEKENTLVITTKLPSGGTTTKEIKVENVPPFPESNVKVSAGGSAGGSAGGS [r4_372_JUSTAS]	0.31 ± 0.036 kcal/mol	0.0453 ± 0.14 kcal/mol	-0.536 ± 0.072 kcal/mol
SAGGSAGGSAGGSEEKLKKMKPKKVATYKVKTVTYKKTKDGTWEPTKVEEVEITVYALPSAGGSAGGSAGGS [r4_288_TrROS_Hall]	4.04 ± 0.072 kcal/mol	3.28 ± 0.3 kcal/mol	2.44 ± 0.07 kcal/mol
SAGGSAGGSAGGSEELLKKNPNYIIVKKVEKVLEAKTPSGKKYTIKTTIYIITKPNELPSAGGSAGGSAGGS [r10_0_JUSTAS]	2.13 ± 0.14 kcal/mol	1.84 ± 0.21 kcal/mol	1.52 ± 0.099 kcal/mol
SAGGSAGGSAGGSEKEVEISVVLPDGYVLRVRVREVSEDGEEVEVEVELVKVKPGQKLLSAGGSAGGSAGGS [r4_72_TrROS_Hall]	1.37 ± 0.079 kcal/mol	1.5 ± 0.15 kcal/mol	1.57 ± 0.051 kcal/mol
SAGGSAGGSAGGSEKKITVYKDKNGNYLVVIEKGDKPIVIPFPKGASLKEALDIIDKLDSAGGSAGGSAGGS [r4_7_TrMRF]	2.64 ± 0.051 kcal/mol	2.41 ± 0.14 kcal/mol	1.95 ± 0.095 kcal/mol

Sequence	folding stability dG unfold [1]	folding stability dG unfold [2]	folding stability dG unfold [3]
SAGGSAGGSAGGSFGAVKARFKVEFVARAEDGSLYPVELEFEVEVPVLPPLPFLHPDLFSAGGSAGGSAGGS [r4_325_TrMRF]	2.35 ± 0.038 kcal/mol	2.18 ± 0.068 kcal/mol	1.86 ± 0.051 kcal/mol
SAGGSAGGSAGGSFTIASVETIRQPNGEILYRITLKFPDGTVEEVLEVPESEAGKVLSSLSAGGSAGGSAGG [r7_891_JUSTAS]	3.333 ± 0.025 kcal/mol	3.3 ± 0.07 kcal/mol	3.23 ± 0.12 kcal/mol
SAGGSAGGSAGGSGAEELAKKLQEKLEELGLEAEITVEYDEETNELTITITVDGKEYEFSAGGSAGGSAGGS [r4_312_TrROS_Hall]	1.74 ± 0.063 kcal/mol	1.94 ± 0.06 kcal/mol	2.24 ± 0.13 kcal/mol
SAGGSAGGSAGGSGAGTLITVTVGGKEVPVTVDPSSDRVSITLPEPTSLTLSVEDPARASAGGSAGGSAGGS [r10_1185_JUSTAS]	-0.602 ± 0.3 kcal/mol	0.208 ± 0.17 kcal/mol	0.593 ± 0.1 kcal/mol
SAGGSAGGSAGGSGGSARIEVERLPDGLVLLRIYDPETGEEIEIPMPPDLARSFVFLNGSAGGSAGGSAGGS [r4_494_TrMRF]	1.51 ± 0.085 kcal/mol	1.11 ± 0.045 kcal/mol	0.471 ± 0.026 kcal/mol
SAGGSAGGSAGGSGKLYYIVVELPNGEKISLLVESPEGAIELLEKLNYPVVKAEFFPISSAGGSAGGSAGGS [r4_213_TrMRF]	3.09 ± 0.055 kcal/mol	2.84 ± 0.12 kcal/mol	2.29 ± 0.091 kcal/mol
SAGGSAGGSAGGSGMITVTIEREYTSYVTFPGGTLEPVLLKTTVTATLPPGVPVEEFLSSAGGSAGGSAGGS [r4_126_JUSTAS]	1.37 ± 0.12 kcal/mol	1.54 ± 0.11 kcal/mol	1.65 ± 0.058 kcal/mol
SAGGSAGGSAGGSGMSVKREVLEVEEFPGPGRVVRVLERVTLPDGTELLREIEEVIDLLSAGGSAGGSAGGS [r4_50_JUSTAS]	1.12 ± 0.049 kcal/mol	0.871 ± 0.058 kcal/mol	0.219 ± 0.068 kcal/mol
SAGGSAGGSAGGSGMVEVVSPDLSPEELKERIRKELGDPSVKVEVTTLSDGTQLARVPASAGGSAGGSAGGS [r4_408_JUSTAS]	-0.0859 ± 0.061 kcal/mol	-0.365 ± 0.12 kcal/mol	-1.74 ± 0.72 kcal/mol
SAGGSAGGSAGGSGNYVPGPSLVTFYDPKTNKWTVVKSAPEEAVKLKASLPENVAKISLSAGGSAGGSAGGS [r4_282_JUSTAS]	-0.0321 ± 0.27 kcal/mol	-0.179 ± 0.32 kcal/mol	-0.237 ± 0.21 kcal/mol
SAGGSAGGSAGGSGQEIPFMLIIKDPDGELDYIIQIEMRRVPNGGVDIEITEIIPAKDISAGGSAGGSAGGS [r4_117_TrROS]	1.76 ± 0.039 kcal/mol	1.77 ± 0.1 kcal/mol	1.55 ± 0.1 kcal/mol
SAGGSAGGSAGGSGYTVKITLKNPDGTESTITISGTGSKEEIINSIKKKYPNNVTKVIESAGGSAGGSAGGS [r4_412_JUSTAS]	1.94 ± 0.069 kcal/mol	1.53 ± 0.31 kcal/mol	1.37 ± 0.16 kcal/mol
SAGGSAGGSAGGSKAKKITIWIPPGNINPEVKDQLQKEGINIEIQPIPAKRDPDGKPRWSAGGSAGGSAGGS [r4_294_TrROS]	1.2 ± 0.036 kcal/mol	0.81 ± 0.14 kcal/mol	-0.558 ± 0.34 kcal/mol
SAGGSAGGSAGGSKKIKIKVPPGARVRLKNGKWFSVEDIEKLKELGIKEIEIEKLPPKKSAGGSAGGSAGGS [r4_47_TrROS_Hall]	1.13 ± 0.09 kcal/mol	0.999 ± 0.081 kcal/mol	0.669 ± 0.037 kcal/mol
SAGGSAGGSAGGSKKIVIRVKDKDGNEREIVLEVPEEELTEEEIAELAKKFPNAEIEVLSAGGSAGGSAGGS [r4_422_TrROS_Hall]	1.02 ± 0.053 kcal/mol	1.96 ± 0.13 kcal/mol	2.48 ± 0.13 kcal/mol
SAGGSAGGSAGGSKKIYLIKIEIEKKITYDKKTKELKIEEKIKIKIEPLSEEDLEKLLKSAGGSAGGSAGGS [r4_274_TrROS_Hall]	3.83 ± 0.18 kcal/mol	3.69 ± 0.46 kcal/mol	2.97 ± 0.25 kcal/mol
SAGGSAGGSAGGSKKTITLDIKVNGYLVKVKLNLETNKLEIVEVYKVSPEKKKLSPKDKSAGGSAGGSAGGS [r4_21_TrROS_Hall]	2.33 ± 0.068 kcal/mol	1.93 ± 0.1 kcal/mol	0.824 ± 0.029 kcal/mol
SAGGSAGGSAGGSKKTITVTVLFKDKNGKPVYIAKAKVTLNENGEETIEITEIYPLEDLSAGGSAGGSAGGS [r4_117_TrROS_Hall]	2.36 ± 0.15 kcal/mol	2.34 ± 0.27 kcal/mol	1.8 ± 0.12 kcal/mol
